± gives the standard deviation of the averaged measurements.
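Further: PSI is a weighted mean of sequencing reads over stability bins, variants kept only with over 10 reads, mCherry proximal and sfGFP distal, peptide attached via GGGS linker.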

For the data set, the system named is Saccharomyces cerevisiae. Nature of the data set: protein stability index of tFT-peptide fusion (C-terminal peptide) (PSI (0-1 scale)); higher = more stable (slower turnover). As to conditions: genetic background: wild type; temperature: 30 C.
Turning to LFRRPLLRPPPF, the protein stability index was found to be 0.745 ± 0.024.
Sequence LFSHGFLYILGG yielded a protein stability index of 0.696 ± 0.017.
Then LFSHLLFPWLSR, with 0.7545 ± 0.0048; and LFSLPPRASFSL, with 0.773 ± 0.043; and LFTSLYWAFRSR, with 0.679 ± 0.016.
To LGAAFHSLTRLV belongs 0.617 ± 0.066; to LGAMTQEADGTG, 0.639 ± 0.078.
To LGARELTFALLR belongs 0.649 ± 0.0039; to LGCSMSPYFVRF, 0.802 ± 0.074.
Regarding LGFCRLVFGVVG, the protein stability index was determined as 0.522 ± 0.01.
Then LGFISGCGVFGT, with 0.708 ± 0.026.
To LGFPLPRTPSIT belongs 0.792 ± 0.06; to LGGGGGGGVAGD, 0.723 ± 0.069; to LGGGVVCGVWGG, 0.704 ± 0.03.
To LGGWLWSPGVVV belongs 0.6355 ± 0.0056; to LGILSERIGRAL, 0.7713 ± 0.0036; to LGKSGLTILCRD, 0.5954 ± 0.003.
As for LGLFGSVVVCGQ, the protein stability index turned out to be 0.65 ± 0.015.
Then LGLGSFPLMDLS, with 0.738 ± 0.015; and LGLQHPSAWLFP, with 0.678 ± 0.045.
To LGNANKRPREIK belongs 0.718 ± 0.032.
Then LGPFSVPCDPHF, with 0.696 ± 0.04; and LGPGGVAWGAWW, with 0.7623 ± 0.0022; and LGPPLLDLASLR, with 0.719 ± 0.035.
Take LGPRMYKRRDLR: the protein stability index amounted to 0.724 ± 0.023.
Then LGRGGAASGRAL, with 0.67 ± 0.062; and LGSSGVVGYHLD, with 0.71 ± 0.054; and LGVGGRWVGPGA, with 0.722 ± 0.027.
To LGVNYWIYSPHG belongs 0.689 ± 0.01; to LGVPKDALKMMS, 0.685 ± 0.0078; to LGVPPVLLLASS, 0.506 ± 0.0077.
For LGWLCWQFFGGT, the protein stability index worked out at 0.795 ± 0.14.
Then LGWVGGGGGWGC, with 0.704 ± 0.03; and LGYGERAGVGKR, with 0.6954 ± 0.0049.
In the case of LHCRFDCTPFPY, the protein stability index is 0.67 ± 0.012.
Take LHGRTLENIVVR: the protein stability index was determined as 0.6481 ± 0.0044.
To LHHGMVDDCIKK belongs 0.70112 ± 0.00044; to LHPCATITELTS, 0.652 ± 0.026.
For LHPPPLPQAPPT, the protein stability index worked out at 0.684 ± 0.09.
Then LHRCRPPCSIHL, with 0.816 ± 0.036; and LHRGCSGNVPAR, with 0.697 ± 0.037; and LHSPPLPFTPSP, with 0.613 ± 0.041.
To LIAACSFPRSSI belongs 0.716 ± 0.067; to LIFDISDLVWYI, 0.636 ± 0.031.
Then LIGMCEAGCSPF, with 0.727 ± 0.012.
LILHVGWDSQLG had a protein stability index of 0.667 ± 0.085.
Then LISSPKIHLRTY, with 0.742 ± 0.14.
To LISSVRLACGVS belongs 0.554 ± 0.061; to LIVPGGLSVFGG, 0.676 ± 0.082.
Then LKKEKDHKNRNR, with 0.67 ± 0.016; and LKNFGRGAMVRT, with 0.688 ± 0.013; and LKSSREKRDMIG, with 0.578 ± 0.019.
LLAEPASSRFRP came in with a protein stability index of 0.722 ± 0.029.
To LLAFRVSRYFCD belongs 0.87 ± 0.06; to LLALHPLRSWPP, 0.665 ± 0.016.
Then LLALSPLSSYAL, with 0.711 ± 0.084; and LLALVLTYLLYG, with 0.564 ± 0.03; and LLDGGGGGVGEG, with 0.765 ± 0.011.
Then LLDGRNVPRFRK, with 0.792 ± 0.042.
With LLFFFTWCLCCF, the protein stability index was 0.569 ± 0.028.
To LLFRSLASMEFP belongs 0.6934 ± 0.0062; to LLGWRFFYLGVG, 0.688 ± 0.051.
Then LLHHPPPPPSQP, with 0.769 ± 0.011; and LLHPLPPPSYPP, with 0.689 ± 0.01.

Values taken from the supplement of paper PMC10724198.
